# In paper PMC4427171:
# Where two headings read alike, the source gives them in different places.
# What was measured:
# [1] = target: PfOPRTase 1–218(Δ37–58)-H6 (Plasmodium falciparum) (UniProt Q8I3Y0); experiment: crystal structure; hanging drop, 100 mM ammonium sulfate, 30% PEG 3350, 277 K; protein at 30 mg/ml; space group P212121, eight chains (four catalytic dimers) in the asymmetric unit
# [2] = target: PfOPRTase 1–218(Δ37–58)-H6 (Plasmodium falciparum) (UniProt Q8I3Y0); experiment: as above; remark: listed apart in the source
substance,measurement,setting,value
PfOPRTase 1–218(Δ37–58)-H6 (from UniProt Q8I3Y0 1-218) (enzyme),stoichiometry N,[1],4
same,stoichiometry N,[2],2
